# Reference: the supplement of paper PMC9170038
# Test system: MS2 coat protein
# Assay: apparent KD of MS2 coat protein; designed switch direction (-1 OFF switch, 1 ON switch): 1; higher = weaker reporter binding
# How it was run: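 The buffer was Tris-HCl pH 7.5 with KCl, MgCl2, BSA, DTT, tRNA and Tween-20. In it, SNAP-549-labelled MS2 coat protein was titrated in doubling steps from 0.7 or 1.5 nM to 3 µM over chip-bound RNA switches transcribed by stalled E. coli RNA polymerase on Illumina chips. Apparent KD is the per-design median over clusters of curve fits to normalised fluorescence.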
# [1] = Eterna round: R95, input ligand: FMN 200 uM
# [2] = Eterna round: R95, input ligand: microRNA oligo, concentration not stated
# [3] = Eterna round: R95, input ligand: none
# [4] = input ligand: microRNA oligo, concentration not stated
Sequence,apparent KD of MS2 coat protein [1] [nM],apparent KD of MS2 coat protein [2] [nM],apparent KD of MS2 coat protein [3] [nM],apparent KD of MS2 coat protein (input ligand: FMN 200 uM) [nM],apparent KD of MS2 coat protein [4] [nM],apparent KD of MS2 coat protein (input ligand: none) [nM]
CGUCCAGCCUGAGCUGGACAAAAGCAUGUACAUGAGGAUCACCCAUGUUCAUGUACAAGCUUUUUGCUCGUCUUAGG [salish99_208a_r3_074] (puzzle: Sensor for hsa-mir-208a),593,20.1,744,–,–,–
CUAAAACAUGAGGAUCACCCAUGUCAACAAAGUCGAGGAUAUGGGCAAAUAAAAUAAGAACCAGAAGGCGAAUAAC [salish99_SS1_r3_014] (puzzle: Same State 1),–,222,–,–,–,–
"CUCCGGAAGCGAGGAUAUGCAGAGGAUCACCCUGCAGAAGGCGCAAAAGCGAGGAUAUGCAGAGGAUCACCCUGCAGAAGGCGC [pwkr ssNG DX.33] (Eterna round: R96, puzzle: Same State NG 1)",–,–,–,10.2,33.3,39.9
"CUCCUAUCGGGAGGAUAUGGUGCCUUGUUGGUGCUAGAAGGUCCAACAUGAGGAUCACCCAUGUGGGAGUGGUUGAGAGACCUC [SS NG10LRO13] (Eterna round: R96, puzzle: Same State NG 1)",–,–,–,131,105,137
"CUGACGUGAUCAGGAUAUUGUAAGACAAUGUUGCAAGAAGGGAUUAAUGAGCCCGAACAGACAUGAGGAUCACCCAUGUGUCAG [Eternabot solution 41] (Eterna round: R96, puzzle: Same State NG 1)",–,–,–,69.5,51.6,67.6
"CUGAGCGAUCAAGGAUAUCACGUCGAUUAGACGUGAGAAGGUGAUAAUUACAUGAGGAUCACCCAUGUAUAACAUGAAGCUCAG [SSNG1/9-A2] (Eterna round: R96, puzzle: Same State NG 1)",–,–,–,16,17.3,19.8
"CUUGCCCAGUCAGGAUAUGGGAAAGGAAGUGUACCAGAAGGGACAAGAAAGGACAUGAGGAUCACCCAUGUCGGGCAGGCGAGA [PowerStrip SSNG 1.23] (Eterna round: R96, puzzle: Same State NG 1)",–,–,–,32.8,82.3,97.1
"GAAAUAAUGAAAGGAUAUACAUGAGGAAUUCUCGUAGAAGGUUCAUGACAUGAGGAUCACCCAUGUAUCGCUCGAAAGAGCGAG [Mat - Same State NG 1 - JL mod - D31] (Eterna round: R96, puzzle: Same State NG 1)",–,–,–,510,152,64
"GACAAUCUAUCUGAGGAUAUCAUGAAAAAAACAUGAGGAUCACCCAUGUGCAGGAAAACUGCAUAUGAGAAGGCAGAUAGAUUGA [salish99_SS2_r3_009] (Eterna round: R96, puzzle: Same State 2)",–,–,–,–,453,–
GACAAUCUAUCUGAGGAUAUCAUGAAAAAAACAUGAGGAUCACCCAUGUGCAGGAAAACUGCAUAUGAGAAGGCAGAUAGAUUGA [salish99_SS2_r3_009] (puzzle: Same State 2),19.7,155,1190,–,–,–
GACAAUCUAUCUGAGGAUAUCAUGAAGAAAACAUGAGGAUCACCCAUGUGCAGGAGAACUGCAAAUGAGAAGGCAGAUAGAUUGG [Mat - Same State 2 - Mod - D2] (puzzle: Same State 2),8.71,13.1,20.4,–,–,–
GACAGGCAAGCUUUUUUCUCGUAGUGUAAACAUGAGGAUCACCCAUGUGCUCGCCCUAGAUCUUUGGAUCGCAGAAA [Ceedes] (puzzle: Sensor for hsa-mir-208a),39.5,22.6,50.1,–,–,–
GACAGGCAAGCUUUUUUCUCGUAGUGUAGACAUGAGGAUCACCCAUGUGCUCGCCCUGGAUCUUUGGAUCGCAGAAA [Laaxeso] (puzzle: Sensor for hsa-mir-208a),17.7,14.4,16.7,–,–,–
"GAGAGAGGAUGAGGAUAUGCAGUAAUAAUGAUAGCAGAAGGCAUAGACAUGAGGAUCACCCAUGUGGGAAUAAUCCAGAGAGAG [Parity 1 - Jieux - Same State NG 1] (Eterna round: R96, puzzle: Same State NG 1)",–,–,–,–,132,–
"GAGAGAGGGUGAGGAUAUAGAGUAAUAAUGAUACUAGAAGGCACAGACAUGAGGAUCACCCAUGUGGGAAUAAUCCAGAGAGAG [Parity 5 - Jieux - Same State NG 1] (Eterna round: R96, puzzle: Same State NG 1)",–,–,–,300,259,401
"GAGAGAUGAUUAGGAUAUCCGGUGAUAAUGAUAGGAGAAGGAAUUGACAUGAGGAUCACCCAUGUGGGAAUAAUCCAGAGAGAG [Parity 23 - Jieux - Same State NG 1] (Eterna round: R96, puzzle: Same State NG 1)",–,–,–,128,54.4,107

Sequence,apparent KD of MS2 coat protein [1] [nM],apparent KD of MS2 coat protein [2] [nM],apparent KD of MS2 coat protein [3] [nM],apparent KD of MS2 coat protein (input ligand: FMN 200 uM) [nM],apparent KD of MS2 coat protein [4] [nM],apparent KD of MS2 coat protein (input ligand: none) [nM]
"GAGAGAUGAUUAGGAUAUUCGGUGAUAAUGAUAGAAGAAGGAAUUGACAUGAGGAUCACCCAUGUGGGAAUAAUCCAGAGAGAG [Parity 21 - Jieux - Same State NG 1] (Eterna round: R96, puzzle: Same State NG 1)",–,–,–,148,77.5,161
"GAGCCAGUCCGAGGAUAUUCAUAUUAACACAUGAGGAUCACCCAUGUAGGCUCAGAAGAGCCUUGGGAGAAGGCGGACUGGCUC [SS-NG2-LRO14] (Eterna round: R96, puzzle: Same State NG 2)",–,–,–,35.2,227,311
"GAGCCAGUCCGAGGAUAUUCAUAUUAACACAUGAGGAUCACCCAUGUGGGCUCAGAAGAGCCCUGGGAGAAGGCGGACUGGCUC [SS-NG2-LRO16] (Eterna round: R96, puzzle: Same State NG 2)",–,–,–,16.5,232,297
"GAGCCAGUCCGAGGAUAUUCAUUAAAUUAAAUACAUGAGGAUCACCCAUGUAGGCGAGAGCCUUGGGAGAAGGCGGACUGGCUC [Xeonanisa>>4] (Eterna round: R96, puzzle: Same State NG 2)",–,–,–,15.5,53.8,97.6
"GAGCCAGUCCGAGGAUAUUCGUAGUAACACAUGAGGAUCACCCAUGUGGGCUCAGAAGAGCCCUUGGAGAAGGCGGGCUGGCUC [SS-NG2-LRO19] (Eterna round: R96, puzzle: Same State NG 2)",–,–,–,7.41,9.15,12.4
GAGGAUGAUUUACAGGAUAUAUAGCAGAUGACAUGAGGAUCACCCAUGUAAGAGAAAGGAGGGAGAUAGAAGGGUAUGGGAUGUG [JR_SS2_Sub039] (puzzle: Same State 2),29.9,21.5,22.3,–,–,–
"GAGGGACAGACCAACAUGAGGAUCACCCAUGUCCUCGCAGGUCAGGAUAUUAUGAGGAUCACCCGUGAGAAGGGACGGUGAAUU (Eterna round: R96, puzzle: Same State NG 3)",–,–,–,709,390,804
"GAGGGACAGACCAACAUGAGGAUCACCCAUGUCCUCGCAGGUCAGGAUAUUAUUAGGAUCACCAGUGAGAAGGGACGGUGAACC (Eterna round: R96, puzzle: Same State NG 3)",–,–,–,755,398,564
"GAGUAGUACGGAGGAUAUGGGCAGAACAAGACACCAGAAGGCCGACAUGAGGAUGCUGGACAUGAGGAUCACCCAUGUACCUGA [Same State 1 S3] (Eterna round: R96, puzzle: Same State NG 1)",–,–,–,22.8,92.6,85.4
"GAGUAGUUGAAAGGAUAUCGAUUGUUAUAGAAUCGAGAAGGUUCUAACAUGAGGAUCACCCAUGUAGGACUAUUCCUGUGUAUC [Parity 77 - Jieux - Same State NG 1] (Eterna round: R96, puzzle: Same State NG 1)",–,–,–,–,9.75,–
"GAGUGGUGGAGAGGAUAUGCAUUGUUAUUCACUGUAGAAGGUUCUAACAUGAGGAUCACCCAUGUAGGACUAUUCCUGUGUUUU [Parity 58 - Jieux - Same State NG 1] (Eterna round: R96, puzzle: Same State NG 1)",–,–,–,–,9.4,–
"GAUUAACAUGAGGAUCACCCAUGUCGUUAUAUGGGAGGAUAUACGUGGACCGUAGUCCGCGUAGAAGGCCUAAUUG [Mat - Same State 1 - Mod of JL - D23] (Eterna round: R96, puzzle: Same State 1)",–,–,–,67.3,115,262
GAUUAACAUGAGGAUCACCCAUGUCGUUAUAUGGGAGGAUAUACGUGGACCGUAGUCCGCGUAGAAGGCCUAAUUG [Mat - Same State 1 - Mod of JL - D23] (puzzle: Same State 1),–,188,–,–,–,–
"GCAACAGGGUGAGGAUAUCUAUGGACCGACCAUAGAGAAGGCACUGGAAACACAUGAGGAUCACCCAUGUGCCAAAGAACAGUA [Eternabot solution 9] (Eterna round: R96, puzzle: Same State NG 1)",–,–,–,17.5,22.4,28.4
GCAGAACAUGAGGAUCACCCAUGUCUCUAAUAUUGAGGAUAUGGACACGGUAUAUCCGAACCAGAAGGCGAACUGC [SS1 Teenbexe 17] (puzzle: Same State 1),27.5,34,41.2,–,–,–
GCAGGACAUGAGGAUCACCCAUGUUCAAAAUAUAGAGGAUAUGGAUACGGUAUAUCCGAACCAGAAGGCUACCUGC [SS1 Teenbexe 23] (puzzle: Same State 1),–,13.7,–,–,–,–
